# IntAct's records for PubMed 20956295
# B1: Tumor necrosis factor receptor superfamily member 6 (Homo sapiens), P25445-1 (parent)
# chain: MLGIWTLLPLVLTSVARLSSKSVNAQVTDINSKGLELRKTVTTVETQNLEGLHHDGQFCHKPCPPGERKARDCTVNGDEPDCVPCQEGKEYTDKAHFSSKCRRCRLCDEGHGLEVEINCTRTQNTKCRCKPNFFCNSTVCEHCDPCTKCEHGIIKECTLTSNTKCKEEGSRSNLGWLCLLLLPIPLIVWVKRKEVQKTCRKHRKENQGSHESPTLNPETVAINLSDVDLSKYITTIAGVMTLSQVKGFVRKNGVNEAKIDEIKNDNVQDTAEQKVQLLRNWHQLHGKKEAYDTLIKDLKKANLCTLAEKIQTIILKDITSDSENSNFRNEIQSLV
# Variants of: B1
# Details: with cav1_human CAV1, Q03135
# Sequence of cav1_human CAV1, Q03135 (Q03135 whole entry): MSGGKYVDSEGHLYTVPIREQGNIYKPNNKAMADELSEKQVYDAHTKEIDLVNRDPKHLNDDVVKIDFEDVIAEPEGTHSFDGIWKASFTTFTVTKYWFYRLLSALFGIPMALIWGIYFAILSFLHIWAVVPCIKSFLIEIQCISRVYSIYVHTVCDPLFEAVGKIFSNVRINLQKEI
row,Variant,effect of a mutation on the interaction
1,MLGIWTLLPLVLTSVARLSSKSVNAQVTDINSKGLELRKTVTTVETQNLEGLHHDGQFCHKPCPPGERKARDCTVNGDEPDCVPCQEGKEYTDKAHFSSKCRRCRLCDEGHGLEVEINCTRTQNTKCRCKPNFFCNSTVCEHCDPCTKCEHGIIKECTLTSNTKCKEEGSRSNLGWLCLLLLPIPLIVWVKRKEVQKTSRKHRKENQGSHESPTLNPETVAINLSDVDLSKYITTIAGVMTLSQVKGFVRKNGVNEAKIDEIKNDNVQDTAEQKVQLLRNWHQLHGKKEAYDTLIKDLKKANLCTLAEKIQTIILKDITSDSENSNFRNEIQSLV [C199S],disrupting interaction
